According to patent US20240409617A1:
Positions count from the first letter of the chain named.

B1: Ab_27 scFv-Fc (scFv, V domains shown)
VH: QVQLVQSGTEVKKPGASVKVSCKASGYSFTGSHLHWVRQAPGQGLEWMGWINPDSGVINYAQKFQGRVTLTRDTSISTAYMELSGLRSDDTAVYYCARDKAIGYVWALDYWGQGTLVTVSS
VL: QSALTQPPSVSGSPGQSVTISCTGTSSDVGTYNRVSWYQQPPGKAPKLMIYEVSNRPSGVSNRFSGSKSGNTASLTISGLQAEDEADYYCSSYTRTFTYVFGTGTKVTVL
B2: Ab 38 scFv-Fc (scFv, V domains shown)
VH: QVTLKESGPTLVKPTQTLTLTCTFSGFSLTTSGVSVGWIRQPPGKALEWLALIHWDDDKRYSPSLRSRLTITRDTSKNQVVLTVTDMDPADTGTYYCASFIMTVYAEYFEDWGQGTLVTVSS
VL: EIVLTQSPATLSVSPGERATLSCRASQSVSSNLAWYQQKPGQAPRLLMYDVSTRATGIPARFSGSGSGTEFSLTISSLQSEDFAVYYCQQRGAWPLTFGGGTKVEIK
B3: Ab 29 scFv-Fc (scFv, V domains shown)
VH: QVQLQQSGPGLVKPSQTLSLTCAISGDSVSSYSDAWNWIRQSPSRGLEWLGRTYYRSKWYNDYAVSVKSRITINPDTSKNQFSLQLSSVTPEDTAVYYCAREIVATTPFRNYYYGMDVWGQGTTVTVSS
VL: NFMLTQPHSVSESPGNTVTISCTRTSGSIASNYVQWYQQRPGSSPTTVIFQDKLRPSGVPDRFSGSIDSSSNSASLTISGLKTEDEADYYCQSYDSSSLWVFGGGTKLTVL
B4: Ab 30 scFv-Fc (scFv, V domains shown)
VH: QVQLVQSGGGVVQPGKSLRLSCTASGFTFSDFPIHWVRQAPGKGLEWVGVISYDGNIKYYGDSVKGRFTISRDNAKNSLYLQMNSLRVEDTAVYYCARGGSSFDIWGQGTTVTVSS
VL: SYELTQPPSVSEAPRQRVTISCSGSTSNIGNNAVSWYQHLPGKAPKLLIYYNERLPSGVSDRFSGSKSGTSASLAISGLRSEDEADYYCAAWDDSLSGHVVFGGGTKLTVL
B5: Ab_28 scFv-Fc (scFv, V domains shown)
VH: QVTLKESGPGLVNPSETLSLTCTVSGASISNSFWSWIRQSPGKGLEWIGYTSYSGNSIYNPSLKSRLTMSIDTSKNQLSLNLRSLTAADTAVYYCARREWIKGHFDYWGQGTLVTVSS
VL: NFMLTQPHSVSESPGKTVTISCTGSGGSIASNYVQWYQQRPGSAPTTVIYEDNQRPSGVPDRFSGSIDSSSNSASLTISGLKTEDEADYYCQSYDSSNPVVFGGGTKLTVL
B6: Ab 31 scFv-Fc (scFv, V domains shown)
VH: QVQLVQSGAEVKKPGSSVKVSCKASGGTFSSYTISWVRQAPGQGLEWMGGIIPILGTPNYAQKFQDRVAITADKSTSTAYMELSSLRSEDTAVYYCAVGSGWYSGFDYWGQGTLVTVSS
VL: B5 VL with G26S, N53S, Y94F, D95H, S96N, V101I

Assays:
[1] = target: B.1.1.7 Spike (SARS-CoV2)
[2] = target: B.1.351 Spike (SARS-CoV2)
[3] = target: P.1 Spike (SARS-CoV2)
[4] = target: B.1.1.7 Spike (SARS-CoV-2 spike protein, UK variant B.1.1.7) (SARS-CoV-2)
[5] = target: B.1.351 Spike (SARS-CoV-2 spike protein, South African variant B.1.351) (SARS-CoV-2)
[6] = target: D614G Spike (SARS-CoV-2 spike protein, D614G) (SARS-CoV-2)
[7] = target: P.1 Spike (SARS-CoV-2 spike protein, Brazilian variant P.1) (SARS-CoV-2)

Binder	Kd [1]	Response [1]	Kd [2]	Response [2]	Kd [3]	Response [3]	Kd [4]	Response [4]	Kd [5]	Response [5]	Kd [6]	Response [6]	Kd [7]	Response [7]
B1	1.57 pM	0.281	1.25 pM	0.0974	8.9 pM	0.0795								
B2							1.47 pM	0.267	7.62 pM	0.234	3.37 pM	0.328	7.23 pM	0.228
B3							693 pM	0.118	371 pM	0.0418			8.45 pM	0.0232
B4							< 1 pM	0.139	< 1 pM	0.0883			9.02 pM	0.0766
B5	1.49 pM	0.206	6.38 pM	0.12	8.91 pM	0.102								
B6							< 1 pM	0.135	< 1 pM	0.09			8.97 pM	0.0789
